Reference: the DeepSol protein solubility set

Test: soluble on expression in E. coli; label from the status in PepcDB or PDB records

Sequence | soluble on expression in E. coli
MAAVVALSLRRRLPATTLGGACLQASRGAQTAAATAPRIKKFAIYRWDPDKAGDKPHMQTYKVDLNKCGPMVLDALIKIKNEVDSTLTFRRSCREGICGSCAMNINGGNTLACTRRIDTNLNKVSKIYPLPHMYVIKDLVPDLSNFYAQYKSIEPYLKKKDESQEGKQQYLQSIEEREKLDGLYECILCACCSTSCPSYWWNGDKYLGPAVLMQAYRWMIDSRDDFTEERLAKLQDPFSLYRCHTIMNCTRTCPKGLNPGKAIAEIKKMMATYKEKKASV | not soluble
MTIHLSSLGQVYLVCGKTDMRQGIDSLAYLVKTHFELDPFSGQVFLFCGGRKDRFKALYWDGQGFWLLYKRFENGKLTWPSTEKDVKALTPEQVDWLMKGFSITPKINLSESRDFY | not soluble
MDTESFKREFLPYHRKLYCVAYRLLENAADAEDLVQEAYLKLWDKREGLSVISNPEAFSVTLVKNMCFDLLRSGKYVLSRQSVELSAAQDVFQPDNLEAREGVRQIKDIIAHLPEQQQRIINMRDIKGCSYEEIEQVTGLNSINVRVLLSRARKKIREEFNKWNNYESRRN | not soluble
MAHHHHHHMRTSRGFCMSMWDSPAFEHNPLSRYWKRMMKQNGETLTAQSIPRHIHGYIEASCPRTEGLVRWFPYKKEITVDGRYVPTISDAIYSYYFPRELNDDERVKYVAIKTGRSELEVAEEVFLMRKMKLFVAQLLRNKLRSRPLRMPEGVDYSGIERRYTLGISRVAQAMGMSMYGTQSYDPVIVYSPYCDIGDCIDCICTKQLRTATQYLLCEVAVHRGIARSRMTDVTSEPKEPLSHVEPCLFEFIKLRLAILALVAKQEHYVVDHLFDGGHRYGGCLIHLFPSPLDPEIIDHEVNHIELDLDLAQKWMKHYYDHYVAPRRSG | not soluble
MPLEAGLLEILACPACHAPLEERDAELICTGQDCGLAYPVRDGIPVLLVDEARRPEAAALEHHHHHH | not soluble
MSDKVQTMASAIYRELETMIKVHGEDGVKTLMPLVVNVLEALDLAYLERDEQTAELEMLKEDNEQLQTQYEREKALRKQTEQKYIEIEDTLIGQNKELDKKIESLESIMRMLELKAKNATDHASRLEEREVEQKLEFDRLHERYNTLLRTHVDHMERTKYLMGSEKFELMQNMPLPNMQLRNKMGMAASVDASSIRGVSDLISAHMTQSTTMDVNLANHITNEDWQDEFSSDIEPSPRDIPQSSADALTSPITTKEPTPKREAASPKQSEEEEADETTSVDPKENNDLLGADLTGNLVDPAEFASAVNDTFIGMGREVENLIKENSELLDMKNALNIVKNDLINQVDELNSENMILRDENLSRQMVSEKMQEQITKHEEEIKTLKQKLMEKENEQEEDDVPMAMRKRFTRSEMQRVLMDRNAYKEKLMELEESIKWTEMQRAKKMQQQQQNVNQKKSGGIWEFFSSLLGDSVTPPASSRGNRASSSRGKMTRSVEYIDPDMISERRAAERREQYKLVREHVKKEDGRIEAYGWSLPNVEAEVSSVPIPVCCRPLLDNEPSLKIWCATGVVLRGGRDERGQWIVGDPIYFAPASMKKTKTSNHRPELEDEIKRARNLDARESELDEWQSSSLVWVVSSNQGKSLIAVLDANNPNNIIETFPACDSHLLCIQAVSGVMEGEPEMNEEQSKKYLSGGGKIKDLPEGLDGTDLGACEWVELRKMEDSEDGVPTYCSNDMKPSPKRTRDFSISEVAPVDSSAPVKEDPLPPPANRPGGRAALPPHIRDAMSKYDGVSGQMSGALPTVWMGGQNQYIYIHSAVTAWKQCLRRIKMPDAVLSIVHYKSRIFAALANGTIAIFHRNKHGEWSDEGYHSLRVGSATSSVRSLCLVSTNIWATYKNCVVVLDAESLQIVKVFAAHPRKDSQVRNMQWVGAGVWLSIRLDSTLRLYHAHTYEHLQDVDIEPYVTKMLGTSKLDFSYMRTTALLVSNRRLWIGTGTGVIISVPFSGQLEKKIETKDSKRPAGPGGLVRVYGATSENATNDEKTNDDFIPYCNLAHAQLSFHGHKDSVKFFLGVPGASKNGEDESAEVTLRRMLIMSGGDGYIDFRIGEENEPELTGQSIRPRDMSHLIIWEVDAELPILSK | not soluble
MGSDKIHHHHHHMFSIGKHSDFTPSCVSRMLGDLHFVNQGTAMKFSRYFFSLLTTLPLLACTQVEAPVPEALSQSTGHTAGAAQPQESVIGGSLPIGDSSRTSLDWQGSYEGVVPCASCEGIKTRLTLNNDGTYLLQSQYLGKEQDGKEPKVFEEQGKFSWNASGGAIQLENGAWYQVGENQLFMLDREGKRITGVLAGHYRLLKKQSALLPRF | not soluble
MSEVIDLASPIEAHGETLSQVTFRRPTAQEARAIKALPYKIDKNEDVSLDLDVAAKYIAVCAGIPPSSVNQMDLCDINTLSWKVASFFMAAASATLKD | soluble
MGSDKIHHHHHHMSRLVVKNLTKIFSLGFFSKRRIEAVKNVSFEVKEKEIVSLVGESGSGKTTTAKMILRLLPPTSGEIYFEGKDIWKDIKDRESLVEFRRKVHAVFQDPFASYNPFYPVERTLWQAISLLENKPSNKKEALELIKESLFRVGIDPKDVLGKYPHQISGGQKQRIMIARCWILRPLLIVADEPTSMIDASSRGGIIKLLEELREEQGTSIIFITHDLGLAYYVSDNIFVMKNGEIVERGHPDKVVLEPTHEYTKLLVGSIPKLYRKLEDL | not soluble
MSLGYLEAAPYGINAPFAWEVQGGKGSGITFVDMEYGWLLNHEDLVHQNIELMSGINIDQHVGHGTSVLGIVSSEDNEVGNIGIAPKAKAKVISQIRDNGQYNTADAILSAVNQLEAGDVLLLEAQASFDGYGDKYLPVEVQPDIFDAIRAGTDKGVVIIEAGANGWNDLDQFKDRNGKQILNRNSKDFKDSGAIMVGAGSSSFPHERMWFSNYGSRIDVYGWGENVDTTTAEQSRSAVNLYTSSFSGTSSASPIIAGAATLVQSIAKENLGQPYRPSELRAILSNENTGTKSKDPYADQIGVLPDLKSILVNLGYGQRKPNGGNELQVTENEPNNERIQANKVNFHTPMKGTLHNSDRVDVFTFQMDSPENITISLLNEQNIGMTWVLHHESDLNNYVAYGENEGNVVKGTYHAKPGKYYLYVYKYENKDGSYVLNIKEGHHHHHH | soluble
MAIRSSVLALCVATLLTGCQNLNTNTLMQSGAQAFQAATLSDAQVKALSDQSCEQMDKEAKIAPADSKYTQRLNKIADALGHDINGTPANYKVYLEKDVNAWAMANGCIRVYSGLMDMMNDNEVEGVLGHEMGHVALGHTRKAMQVAYAATAARTAIASAGGVAASLSQSQLADLGEKLVNSQFSQSQESQADDYSFDLLKKRGINREGLASSFEKLAKLDASHESSMFDSHPSSEGRAKHIRERITAEKLEHHHHHH | soluble
MNKDLRPIIWNDSEKKLVLIDQRKLPNELVYFECKNYKDVCFAIKDMVVRGAPAIGVAAAYGMALAELNGEDMEKAYLELKKTRPTAVNLFWALEKIIAAKNSGKSLLDEAKLIHEEDIELCRKIGEIGEVLIDDFDTILTHCNAGALATSAYGTALSVIRFAHYNGKKINVLSDETRPRLQGAKLTCFELNYENIPVKAICDNTAGFMMSKGLVDKIIVGADRILSDYHVFNKIGTYSLAILAKYHNIPFYVAAPYSTFDFESKLEDIVIEERSESEVTHIDNVRIVAEGVSAYNFAFDCTPPELITGIITEKEIIYPNKLEHHHHHH | not soluble
MSLEYAKSLFERHLDIASKFRPKNPYLKTAYMNVLLSLTQTICQSPQELSNDDLSDAGAALAYLREAGFELDWLEKKLNEVKEKKKKEEACLAEIQDMDEHVKPLKKKYLDLEAQIDKKKAELLAARAPLSLNDDNVVSMFCDSAETQQWFDKNAPDWGFTEMISLTELHAEEGLLRNGELTVVAKVEVLEVVGKLDVSEESSPVIETIDVNGFQVLPSEGHHHHHH | soluble
MGSDKIHHHHHHMKILIDATAALMGGGQTYLINLLNYTEILEHDIIILSPKKLTLPSIQNIHRIDVDKSLENPFIRAVWMRRYLPDLIKERKVDILFCPGGLITKGIPSNCVKVTMFRNMIPFDLKQRVKYPLGYMRFRNWLLERLLLDSMIEADLVIFISEYASKVIKKRAKKKLRNTVIIPHGLSAEFRIFDKKAIPRPQWLPAEDYLLYVSILDVYKAQIELIQGFALLKKWRQTSEKLLLVGPDEERSYYTKMIKKEIVKHGLQNDVIITGPVPYNELPALYYHAKVNIFASECENCPNILLEALGAGRPTLVSDCEPMPEFGGDSVEYFDPTSPEDFANSIIRFIDDENKMKELAKKAGERSLLFDWEKVGRLTWQSIENIYNSKTINM | not soluble
MYIDKDDFTAWMERIMDRFDMQDKKIDRVIKGRNCLDGEELLDNQDLCLLLKVAPRTLTRYRKKGILPFLMLDGRCYYRATDVHKLIREKTD | not soluble
MIEYTSGDILRCEADALVNTVNCVGVMGRGIALQFKNMYPANFKAYEAACKREEVQPGRMFVFETKQLTPPRLIINFPTKRHWRGKSRIEDIEAGLVDLVNVIRDKNIRSIAIPPLGAGLGGLDWKEVRPRIEHALGELEGVQVIVYEPNGAPASDKMAHVREVPKMTSGRAALVELMQRYLSGLLDPFVTLLEVHKLMYFMQEAGEPLRLDYIKHHYGPYAKNLRHVLNAIEGHLIAGYADGGDAPDKPLSLVPGAVAEAKSFLDQHEISRARFERVTRLVEGFESPYGLELLATVHWVIHREGATQSDSVKRQIYQWNDRKRQFTQRQLVIAEERLRSQGWLSPETTFTYMAGDPLEHHHHHH | not soluble
EDLGYFCVDNLPPSLLPKFLELMKESNSKMSKVALVMDLRGREFFDRLIEALDEMAENPWITPRILFLDAKDSILVTRYKETRRSHPLAATGLPLEGIALERELLEELKGRSQIIYDTSDMKPRDLREKIVKHFATNQGETFTVNVMSFGFKYGIPIDADLVFDVRFLPNPYYIESMRPLTGKDKEVSSYVMKWNETQKFNEKLIDLLSFMLPSYKREGKSQVVIAIGCTGGQHRSVTLAENLADYFKKDYYTHVTHRDIEKR | not soluble
MSLKSQNTLWKIRKIWAKFQRYTISYKQEIIGTFNPQAQMILMNHQSALDIIALEELYPKNLCWIAKKELGEIPIFKVAMKKPKLLCIDRKNPRDLVRVLKEAKERISEDRVLAIFPEGTRSKNEKMLKFQSGAKILSEKLNLKVQPILIVDSAKILDTKSFSASSGVLKIICMDLVDTNDEKWLENTRKKMQELLDQERAKLCEGHHHHHH | not soluble
MIKFGTGGWRAFIGEEFTKDNVRLVAQALANIIHHEQAANEGFVIGYDRRFLSDKAGRWFAEVLAANGVVVSFIDKFVPTPVVMFKAKAMDCAYSACITASHNPADYNGIKVFIRGGRDADEVITQKIEQQIATLTLQDVKSIDFDQAVNDKLIDIINPMNEFVDSIINFIDIEAIKKANLRVLIDPMFGVAKNALQTVLINGRCDVDVINDGKNPDFGGLMPSPSAATLYRLKHLVKHEGYDIGIGTDGDADRLGIIDEKGNFIHPNEVLILLYYYLLEYKGWKGSVVRNIATTHLLDKIAADHGERCFEVPVGFKHISSQMEADDSLIGGESSGGLTIRGHIKGKDGVFASSLLVEMISVTGKKLSELLTEIYDRYGYAYTAEGDCKFKPAQRDEIYNKVYIEKKLPEFEFDIDKVSYEDGAKVYFKNGGWVIARFSGTEPLLRIFAEMADKDTAERVLQQMKAFLAL | not soluble
MQTSHSLPSAQLPLFQEAFWASNGAPLLDDVIDSPSSASIEEPAAFSELSLSGLPGHCLTLLAPILRELSEEQDARWLTLIAPPASLTHEWLRRAGLNRERILLLQAKDNAAALALSCEALRLGRSHTVVSWLEPLSRAARKQLSRAAQLGQAQSLNIRLG | soluble
SAAIYSLYIINKSGGLIFYKDCGTKGRMDTNDSLRVASLWHSMHAISQQLSPVNGCSGIELLEADTFDLHCFQSLPGTKFFVVCEPGTPHMESLLRYIYELYTDYVLKNPFYEIEMPIRCELFDINLTQAVQSDRVALLGR | soluble
